Assay results: patent CN113372440A (SUN YAT SEN UNIV CANCER CENTER SUN YAT SEN UNIV AFFILIATED …, dated 2021)
Read-outs that look alike come from different tables or passages of the source.

Key:
[1] = target: gH/gL glycoprotein on EBV virions produced by AKATA cells (Epstein-Barr virus, UniProt P03231 19-706; P03212 23-137); test: cell-based or functional assay
[2] = target: T1, gLgH蛋白 (recombinant single-chain EBV M81 gL ectodomain - linker - gH ectodomain - 6xHis) (Epstein-Barr virus (M81 strain, …)); test: ELISA, gLgH coated at 2 μg/mL, antibody titrated from 1 μg/mL, HRP goat anti-mouse IgG (Fig. 1)
T1 construct: also called gHgL蛋白; gLgH protein

[3] = target: T1, gLgH蛋白 (recombinant single-chain EBV …)
[4] = target: T1, gLgH蛋白 (recombinant single-chain EBV …); test: ELISA by the method of Example 1 step 5, gLgH coated (Fig. 8)
[5] = target: T1, gLgH蛋白 (recombinant single-chain EBV …); test: SPR by the method of Example 4 (Biacore 8K, Protein A capture, gLgH as analyte) (Fig. 9)

Binder	IC50 in the epithelial cell infection model (HNE1 cells, GFP-EBV, inhibition of GFP-positive cells) [1] [µg/mL]	EC50 [2] [µg/mL]	Kd [3] [nM]	EC50 [4] [µg/mL]	Kd [5] [nM]
单克隆抗体6H2 (anti-EBV gLgH mouse monoclonal antibody 6H2) (antibody, V domains shown, also called 单抗6H2; 中和抗体6H2) VH: EVKLLESGGGLVQPGGSLKLSCAASGFDFSRYWMTWVRQAPGQGLEWIGEINPDSSTINYTPSLKDKFIISRDNAKNTLYLQVSKLRSEDTALYYCARSPYYYGSSYDVWGAGTAVTVSS VL: DIVMSQSPSSLAVSAGEKVTMNCKSSQSLLNSRTRKNYLAWYQQKPGQSPKLLIYWASTRESGVPDRFTGSGSGTDFTLTISSVQAEDLAFYYCKQSYNLPTFGGGTKLEIK	0.108	0.0134	2.8		
嵌合单抗C6H2 (mouse 6H2 variable regions on human IgG1/kappa constant regions) (antibody, V domains shown, also called 嵌合抗体C6H2) VH: EVKLLESGGGLVQPGGSLKLSCAASGFDFSRYWMTWVRQAPGQGLEWIGEINPDSSTINYTPSLKDKFIISRDNAKNTLYLQVSKLRSEDTALYYCARSPYYYGSSYDVWGAGTAVTVSS VL: DIVMSQSPSSLAVSAGEKVTMNCKSSQSLLNSRTRKNYLAWYQQKPGQSPKLLIYWASTRESGVPDRFTGSGSGTDFTLTISSVQAEDLAFYYCKQSYNLPTFGGGTKLEIKR				0.0266	11.5
